US10093706, “Dominant positive hnRNP-E1 polypeptide compositions and methods” (Indiana University Research and Technology Corporation)

Key:
hnRNP-E1(G292A) = hnRNP-E1(G292A) (Homo sapiens, UniProt Q15365 SEQ:1-356, G292A); test: no L-homocysteine; Scatchard; no gel-shift signal in this condition (FIG. 1B); conditions: tags: GST fusion (pGEX-4T-1, E. coli BL21); label: 35S
Procedure: (§1) Specific binding was determined by subtracting values of non-specific binding with GST from those of total binding with GST-hnRNP-E1; (however, in Table 1 and FIG. 6G, non-specific binding using bovine serum albumin (BSA) was subtracted from total binding to GST-hnRNP-E1 to determine specific binding). The K_D was calculated from a Scatchard plot using GraphPad Prism 6 from GraphPad Software (San Diego, Calif.), as previously described in the art.

hnRNP-E1(C293S) = hnRNP-E1(C293S) (Homo sapiens, UniProt Q15365 SEQ:1-356); test: no L-homocysteine; Scatchard; conditions: tags: GST fusion (pGEX-4T-1, E. coli BL21); label: 35S
Procedure: as §1

[1] = molecular target: hnRNP-E1 (PCBP1) wild-type (Homo sapiens, UniProt Q15365 SEQ:1-356); test: EMSA; 15 uM L-homocysteine; complete quenching of signal; conditions: tags: GST fusion (pGEX-4T-1, E. coli BL21)
Sequence of hnRNP-E1 (PCBP1) wild-type (Q15365 whole entry A205V, the tested form may be a part): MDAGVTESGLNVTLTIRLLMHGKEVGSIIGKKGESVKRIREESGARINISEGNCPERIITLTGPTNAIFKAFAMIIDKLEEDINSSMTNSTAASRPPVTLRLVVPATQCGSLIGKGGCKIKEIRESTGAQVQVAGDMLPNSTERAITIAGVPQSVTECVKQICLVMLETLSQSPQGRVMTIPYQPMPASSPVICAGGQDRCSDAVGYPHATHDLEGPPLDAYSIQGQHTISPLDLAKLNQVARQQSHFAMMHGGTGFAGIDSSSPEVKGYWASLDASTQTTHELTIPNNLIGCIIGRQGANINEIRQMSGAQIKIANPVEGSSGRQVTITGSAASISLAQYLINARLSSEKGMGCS

Sequence of hnRNP-E1(G292A) (Q15365 whole entry A205V/G292A, the tested form may be a part): as the sequence (Q15365 whole entry A205V, the tested form may be a part) above, with G292A counted along it
Sequence of hnRNP-E1(C293S) (Q15365 whole entry A205V/C293S, the tested form may be a part): as the sequence (Q15365 whole entry A205V, the tested form may be a part) above, with C293S counted along it

CUCCCGCCCGCUCCCGCUCGCUCCC (ssRNA) [25-nt hnRNP-E1 mRNA 5'-UTR cis-element]
Kd (hnRNP-E1(G292A)): 2.02 nM | Kd (hnRNP-E1(C293S)): 0.39 nM

CUUCCGCCCGCUCCCGCUCGCUUCC (ssRNA) [25-nt cis-element mutation 6]
binding result [1]: no binding
